Data from PMC6311007.

Target: porcine CSF1 fused to an antibody Fc region (pCSF1-Fc), produced in egg white of transgenic hens (porcine)
Test: non-reducing SDS-PAGE; pCSF1-Fc purified from egg white (MabSelect SuRe, SEC), non-reducing SDS-PAGE stained with Instant Blue

Substance: porcine CSF1 fused to an antibody Fc region (pCSF1-Fc), produced in egg white of transgenic hens (Fc fusion)
- stoichiometry N: 2
